Measurements published in US20250388637A1.

Target: Recombinant human PDGF-B (human) (UniProt P01127)

- inhibition of PDGF-B stimulated PDGFR-β phosphorylation, BHK-21/PDGFR-β cells: 16%
Substance: MBP-GCN4-Prodomain
